The values below come from publication doi:10.1101/2024.11.26.625551 (bioRxiv, 2024).

For orientation: Kd means the equilibrium constant for the complex coming apart. The low end stands for tighter binding, the high end for weaker binding. As usually defined, the stoichiometry N is a count of units in the complex or per binding partner.

One data set has as its target endogenous CAV1 (HeLa) (Homo sapiens (HeLa), UniProt Q03135). The data set is described as follows: co-IP.
Another data set concerns the target endogenous Cavin1 (HeLa) (Homo sapiens (HeLa), UniProt Q6NZI2). The data set is described as follows: co-IP.
Data set [1] deals with zebrafish Cavin4b HR1 domain (Danio rerio, UniProt A0A8M1N3J3). The data set is described as follows: ITC.
Data set [2] concerns the target mouse Cavin1 HR1 domain (His-Ub construct) (Mus musculus (Mouse)., UniProt O54724). The data set is described as follows: ITC. On the technique in general: Isothermal titration calorimetry measures the heat released or taken up as one component is titrated into another.
Data set [3] concerns the target His-MBP full-length mouse Cavin1 (Mus musculus (Mouse)., UniProt O54724). The data set is described as follows: ITC.
Data set [4] concerns the target mouse Cavin1 HR1 N-terminal fragment mC1-HR1(45-103) (Mus musculus, UniProt O54724). The data set is described as follows: ITC.
Data set [5] addresses zebrafish Cavin4a HR1 domain (Danio rerio, UniProt A1L260). The data set is described as follows: ITC.
Data set [6] addresses GST-tagged mouse Cavin1 HR1 domain (Mus musculus, UniProt O54724). The data set is described as follows: pull-down.
The data set “crystal structure” deals with the molecule itself. The data set is described as follows: crystal structure.

Sequence of endogenous Cavin1 (HeLa) (Q6NZI2 whole entry, the tested form may be a part): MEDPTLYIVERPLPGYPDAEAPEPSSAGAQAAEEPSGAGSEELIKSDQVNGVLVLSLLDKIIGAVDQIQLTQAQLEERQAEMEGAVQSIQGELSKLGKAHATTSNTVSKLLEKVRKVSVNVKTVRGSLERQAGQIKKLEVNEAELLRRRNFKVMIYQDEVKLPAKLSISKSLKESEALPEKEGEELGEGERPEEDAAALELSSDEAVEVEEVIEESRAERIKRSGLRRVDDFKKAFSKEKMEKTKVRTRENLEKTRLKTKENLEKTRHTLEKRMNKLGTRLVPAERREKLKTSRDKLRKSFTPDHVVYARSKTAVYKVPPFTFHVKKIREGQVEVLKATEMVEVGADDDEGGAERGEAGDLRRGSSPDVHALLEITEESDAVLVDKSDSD
Sequence of endogenous CAV1 (HeLa) (Q03135 whole entry): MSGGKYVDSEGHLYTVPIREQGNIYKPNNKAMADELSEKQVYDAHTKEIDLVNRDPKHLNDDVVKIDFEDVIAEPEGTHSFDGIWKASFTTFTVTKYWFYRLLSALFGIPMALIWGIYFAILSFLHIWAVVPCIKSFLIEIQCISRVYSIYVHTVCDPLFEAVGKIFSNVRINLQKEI
Sequence of zebrafish Cavin4a HR1 domain (A1L260 whole entry, looked up, the tested form may be a part): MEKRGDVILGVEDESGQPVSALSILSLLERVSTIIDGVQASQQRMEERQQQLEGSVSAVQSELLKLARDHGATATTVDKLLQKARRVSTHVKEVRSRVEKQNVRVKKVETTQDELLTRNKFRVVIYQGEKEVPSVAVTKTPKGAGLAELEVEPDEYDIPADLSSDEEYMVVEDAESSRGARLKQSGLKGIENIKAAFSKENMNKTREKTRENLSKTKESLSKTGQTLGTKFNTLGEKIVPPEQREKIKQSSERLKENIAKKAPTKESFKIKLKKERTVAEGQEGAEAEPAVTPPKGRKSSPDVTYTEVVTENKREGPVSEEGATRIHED
Sequence of His-MBP full-length mouse Cavin1 (O54724 whole entry, the tested form may be a part): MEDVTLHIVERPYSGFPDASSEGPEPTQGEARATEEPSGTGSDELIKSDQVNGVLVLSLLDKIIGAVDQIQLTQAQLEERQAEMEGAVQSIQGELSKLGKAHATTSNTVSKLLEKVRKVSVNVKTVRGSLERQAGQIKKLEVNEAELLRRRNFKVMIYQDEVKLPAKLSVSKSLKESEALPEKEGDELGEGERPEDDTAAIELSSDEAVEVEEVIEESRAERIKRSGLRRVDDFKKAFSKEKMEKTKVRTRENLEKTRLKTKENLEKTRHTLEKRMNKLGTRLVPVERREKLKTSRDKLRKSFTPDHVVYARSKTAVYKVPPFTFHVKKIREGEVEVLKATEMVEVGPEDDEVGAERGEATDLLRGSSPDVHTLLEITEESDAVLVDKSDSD

B1: NbB7-GFP (VHH)
VHH: QVQLQESGGGLVQAGGSLRLSCAVSGIRVNVNAMYWYRQAPGKQRELVAIITTFGSTNYADSAKGRFTISRDNTKNTVYLQMDNLKPEDTAVYYCNAPQFTDRYWGQGTQVTVSS
On to B1, for which the binding result with endogenous CAV1 (HeLa) and with endogenous Cavin1 (HeLa) was “binds” throughout.

B2: nanobody NbB7 (VHH)
VHH: QVQLQESGGGLVQAGGSLRLSCAVSGIRVNVNAMYWYRQAPGKQRELVAIITTFGSTNYADSAKGRFTISRDNTKNTVYLQMDNLKPEDTAVYYCNAPQFTDRYWGQGTQVTVSS
As to B2, the binding result in data set [1] is reported as “no binding”. The molecule further showed a dissociation constant (Kd) in data set [2] of 520 nM.

B3: nanobody NbA12 (VHH)
VHH: QVQLQESGGGLVQAGGSLRLSCAASGFTFDDYAIGWFRQAPGKEREGVSCITSSDGSTYYADSVKGRFTISSDNAKNTVYLQMNSLKPEDTAVYYCAAESWPPLCHYSGMDYWGKGTQVTVSS
As to B3, the binding result in data set [3] is on record as “binds”; in data set [4], “binds”; in data set [5], “no binding”; in [1], “no binding”; in data set [2], “binds”; in data set [6], “binds”.

B4: mouse Cavin1 HR1 domain (as crystallised with NbB7) (domain or fragment, UniProt O54724 45-155, looked up)
chain: LIKSDQVNGVLVLSLLDKIIGAVDQIQLTQAQLEERQAEMEGAVQSIQGELSKLGKAHATTSNTVSKLLEKVRKVSVNVKTVRGSLERQAGQIKKLEVNEAELLRRRNFKV
Consider B4, for which, in the data set “crystal structure”, the “stoichiometry N” value turned out to be 3.
